This is an account of results in US20090202574A1, “METHODS OF IMMUNE OR HAEMATOLOGICAL ENHANCEMENT, INHIBITING TUMOUR FORMATION OR GROWTH, AND TREATING OR PREVENTING CANCER” (priority 2004, published 2009).

Assay [1] concerns cultured EL-4 tumour cells. Nature of the assay: Apoptosis of cultured EL-4 tumour cells triggered by sera of fed mice. The settings on record: Example 17; sera after 6 weeks of 28 g per 2.4 Kg diet; vs spontaneous apoptosis; control-diet sera 80%. It counts as cell-based, C57BL/6 mice. As for the experimental part: Feeding of Fe-saturated lactoferrin releases anti-tumour factors into the systemic circulation. Fifteen 8 to 9 week-old female C57BL/6 mice were fed the control AIN-93 diet or a diet supplemented with 28 g of 100% Fe-saturated lactoferrin per 2.4 Kg of diet. Sera was collected from experimental and control mice after 6 weeks of feeding the latter diets and tested for their ability to trigger the apoptosis of cultured EL-4 tumour cells.
Sera collected from experimental and control mice was tested for its ability to trigger the apoptosis of cultured EL-4 tumour cells. EL-4 cells (2×10^3) in 80 μl of DMEM media were incubated for 24 h in the presence or absence of 100 μl of sera that had been concentrated to 20 μl. The cells were then washed, permeabilized with a solution containing 0.1% Triton X-100 and 0.1% sodium citrate, and incubated with 20 μl of TUNEL reagent (In Situ apoptosis detection kit from Boehringer Mannheim, Germany) for 60 min at 37° C., and examined by fluorescence microscopy. Total numbers of cells were counted by staining the cells with methylene blue. The number of apoptotic cells was counted in ten randomly selected fields (magnification of ×40). The apototic index (AI) was calculated as the number of apoptotic cells×100/total number of nucleated cells.

In another assay the test system is LLC target cells. The assay is described as follows: Anti-tumour cytolytic activity of splenocytes against LLC target cells. Format: in vivo, C57BL/6 mice. To be noted: Example 18, FIG. 14B (epirubucin experiment), vs controls. As for the experimental part:
(§1) Splenocytes were tested for their cytolytic activity against tumour target cells. […] Referring to FIGS. 14B, D, and F the percent cytotoxicity is plotted against various effector-to-target cell ratios (E:T ratios); each point represents the mean percent cytotoxicity obtained from 5 mice; and the bar represents 95% confidence intervals.

The test system of the next assay is B16 melanoma tumours. Nature of the assay: B16 melanoma tumour growth in mice. It counts as in vivo, C57BL/6 mice. To be noted: Example 18; 28 g Fe-Lf per 2.4 Kg diet; fluorouracil 150 mg/Kg i.p. As for the experimental part: (§2) Tumors were established by s.c. injection of 2×10^5 EL-4 cells into the left flank of mice, and growth determined by measuring two perpendicular diameters. Animals were euthanased when tumors reached more than 1.0 cm in diameter, in accord with Animal Ethics Approval (University of Auckland). All experiments included 5 mice per treatment group, unless otherwise indicated. Paclitaxel (30 mg dissolved in 5 ml of Cremophor® EL and dehydrated alcohol) was diluted in 0.9% NaCl and administered i.p. at 30 mg/Kg. Doxorubucin in water was injected i.p. at 15 mg/Kg. The drugs were injected in a volume of 0.01 to 0.02 ml/g body weight. The expression vector encoding mouse B7-1 was prepared by cesium chloride gradient centrifugation, and diluted to 5 μg/μl in a solution of 5% glucose in 0.01% Triton X-100. It was mixed in a ratio of 1:1 (wt:wt) with DOTAP cationic liposomes (Boehringer Mannheim, Germany). Tumors were injected with 180 μl of DNA (180 μg)/liposome complexes, as described previously (Kanwar, et al., 1999 and Kanwar, et al., 2000).
(§3) Mice were fed the control diet, and the same diet supplemented with 28 g of 100% Fe-saturated lactoferrin per 2.4 Kg of diet. EL-4 (2×10^5), Lewis lung carcinoma (LLC, 2×10^5), and B16 melanoma (2×10^5) tumour cells were injected into the left flanks of C57BL/6 mice following two weeks on the Lf diets, or control diet. […]

Assay [2] concerns Th1 (IL-18, TNF-α, IFN-γ) and Th2 (IL-4, IL-5, IL-6, IL-10) cytokines. Nature of the assay: ELISA of Th1 and Th2 cytokines in intestine and tumour. Format: in vivo, mice. To be noted: Example 14. As for the experimental part:
(§4) Cytokine levels in the supernatants of homogenates of the small intestine were determined using a “sandwich” ELISA kit (Endogen, Woburn, Mass.). They were detected within standard curve ranges of 15-375 pg/ml for IL-4, 0-2450 pg/ml for IL-5, 15-1000 pg/ml for TNF-α, 0-3000 pg/ml for IFN-γ, 37-3000 pg/ml for IL-10, 31.3-2000 pg/ml for IL-12, and 31.3-2000 pg/ml for IL-18, respectively. Quantification of nitrite, indicative of NO production, was carried out by the Griess reaction (Sigma, USA). The results are expressed as the mean nitrite concentration (μM)±SD.
(§5) The ability of oral iron-saturated lactoferrin to affect the expression of a panel of Th1 and Th2 cytokines was examined in non-tumour-bearing mice, and in tumour-bearing mice fed iron-saturated bovine lactoferrin or the control diet, and treated with either paclitaxel or doxorubicin or a combination of the two drugs.

A further assay deals with EL-4 target cells. The assay is described as follows: Anti-tumour CTL and/or NK cell cytolytic activity of splenocytes against EL-4 target cells. The settings on record: for increase in anti-tumour CTL and/or NK cell activity: Example 2, day 98; for increase in anti-tumour cytolytic activity: Example 18, EL-4, vs controls.
Another assay concerns Nitrous oxide. The assay is described as follows: Nitrite (Griess reaction) at tumour site and in intestine. It counts as in vivo, mice. To be noted: Example 14, P<0.001. As for the experimental part:
as §4, §5
In general terms: Griess reagent forms a coloured azo dye with nitrite.

Another assay has as its system B16 target cells. The assay is described as follows: Anti-tumour cytolytic activity of splenocytes against B16 target cells. The settings on record: Example 18, FIG. 14D (fluorouracil experiment), vs controls. It counts as in vivo, C57BL/6 mice. As for the experimental part:
as §1

Assay [3] in a line: Blood haematological profile (red and white blood cell counts). Format: in vivo, mice. The settings on record: blood from the heart at autopsy; mean. As for the experimental part: The red and white blood cell counts of mice sacrificed in the preceding examples were recorded. Oral feeding of bovine iron-saturated lactoferrin alone or in combination with administration of paclitaxel or doxorubicin or both increased the mean values of red and white blood cells compared to control mice and compared to mice administered paclitaxel and doxorubicin but not fed lactoferrin, as shown in Table 1.

Assay [4] deals with Lewis lung carcinoma (LLC) tumours. Nature of the assay: Lewis lung carcinoma tumour growth in mice. It counts as in vivo, C57BL/6 mice. To be noted: Example 18; 28 g Fe-Lf per 2.4 Kg diet; epirubucin 15 mg/Kg i.p. As for the experimental part: as §2, §3

Method for EL-4 target cells: Splenocytes were harvested 28 days following tumour cell injection, as specified. They were incubated at 37° C. with EL-4 target cells in graded E:T ratios in 96-well round-bottom plates. After a 4-hour incubation, 50 μl of supernatant was collected, and lysis was measured using the Cyto Tox 96 Assay Kit (Promega, Madison, Wis., USA). Background controls for non-specific target and effector cell lysis were included. After background subtraction, percentage of cell lysis was calculated using the formula: 100× (experimental-spontaneous effector-spontaneous target/maximum target-spontaneous target).

B1: iron-saturated bovine lactoferrin: Iron-saturated bovine lactoferrin extract (100% saturated) prepared from natural bLf (protein)
chain: APRKNVRWCTISQPEWFKCRRWQWRMKKLGAPSITCVRRAFALECIRAIAEKKADAVTLDGGMVFEAGRDPYKLRPVAAEIYGTKESPQTHYYAVAVVKKGSNFQLDQLQGRKSCHTGLGRSAGWIIPMGILRPYLSWTESLEPLQGAVAKFFSASCVPCIDRQAYPNLCQLCKGEGENQCACSSREPYFGYSGAFKCLQDGAGDVAFVKETTVFENLPEKADRDQYELLCLNNSRAPVDAFKECHLAQVPSHAVVARSVDGKEDLIWKLLSKAQEKFGKNKSRSFQLFGSPPGQRDLLFKDSALGFLRIPSKVDSALYLGSRYLTTLKNLRETAEEVKARYTRVVWCAVGPEEQKKCQQWSQQSGQNVTCATASTTDDCIVLVLKGEADALNLDGGYIYTAGKCGLVPVLAENRKSSKHSSLDCVLRPTEGYLAVAVVKKANEGLTWNSLKDKKSCHTAVDRTAGWNIPMGLIVNQTGSCAFDEFFSQSCAPGADPKSRLCALCAGDDQGLDKCVPNSKEKYYGYTGAFRCLAEDVGDVAFVKNDTVWENTNGESTADWAKNLNREDFRLLCLDGTRKPVTEAQSCHLAVAPNHAVVSRSDRAAHVKQVLLHQQALFGKNGKNCPDKFCLFKSETKNLLFNDNTECLAKLGGRPTYEEYLGTEYVTAIANLKKCSTSPLLEACAFLTR
modifications: iron-saturated; Bovine Lactoferrin
notes: Iron-saturated bovine lactoferrin extract (100% saturated) prepared from natural bLf
As for B1, in [1], the “increase in tumour cell apoptosis induced by sera” value was found to be 300%. Also, the “increase in anti-tumour cytolytic activity” value was found to be 150% with LLC target cells; 130% in the assay with EL-4 target cells (FIG. 14B (epirubucin experiment)); 87% in the assay with EL-4 target cells (FIG. 14D (fluorouracil experiment)); 100% in the assay with EL-4 target cells (FIG. 14F (cyclophosphamide/methotrexate experiment)); 45% in the assay on B16 target cells. Further, the B16 tumour response entry in the assay on B16 melanoma tumours was “slowed the growth of all three tumour types, but failed to eradicate the tumours altogether”. In addition, in [2], the “cytokines within the tumor site” value is given as “increased the presence of all cytokines”. The “levels of IL-18 and IL-10 in tumour-bearing mice relative to non-tumour-bearing mice” value in assay [2] (oral feeding) is “less than half”. The “anti-tumour CTL and/or NK cell activity of splenocytes” value in the assay on EL-4 target cells (Example 1, splenocytes at day 42, vs control diet) was “significantly (P<0.05) increased”. Also, the “increase in anti-tumour CTL and/or NK cell activity” value with EL-4 target cells (mice that remained tumour-free, vs control diet, P<0.001) is on record as 6 fold; with EL-4 target cells (mice who developed tumours and were switched to control diet, vs control diet, P<0.001), 30 fold. The “increase in anti-tumour cytolytic activity of splenocytes” value in the assay on EL-4 target cells (Example 15, the one mouse that resisted the tumour challenge, vs control, P<0.001) came to 6 fold. Moreover, the “increase in anti-tumour cytolytic activities of splenocytes” value with EL-4 target cells (Example 16, 6 of 30 mice that rejected the tumour on 1, 5 and 25 g diets, p<0.001) was in the range of 3 to 4.6 fold. Besides, in the assay on Nitrous oxide, the “increase in nitrous oxide” value was in the range of 3 to 4 fold. For the same molecule, the RBCs in [3] is reported as 8.2 ± 2.5 ×10^6/mm^3. Besides, the WBCs in assay [3] was 3.5 ± 1.2 ×10^3/mm^3. Further, in assay [4], the LLC tumour response entry is “slowed the growth of all three tumour types, but failed to eradicate the tumours altogether”.
